The source of these data is patent US20260256927A1 (Merck Sharp & Dohme, published 2026).

Where a chain is given by its changes, count along the chain named. Numbers in names are those of the source.

Test [1] deals with T1, IL-2Rα-Fc (Acro Biosystems, catalog #ILA-H5251) (UniProt P01589 22-217, limits assumed).
T1 construct: Bought reagent; Captured on an anti-Fc chip as SPR ligand; also called CD25; not shown: Fc part of the bought fusion
T1 sequence (looked up): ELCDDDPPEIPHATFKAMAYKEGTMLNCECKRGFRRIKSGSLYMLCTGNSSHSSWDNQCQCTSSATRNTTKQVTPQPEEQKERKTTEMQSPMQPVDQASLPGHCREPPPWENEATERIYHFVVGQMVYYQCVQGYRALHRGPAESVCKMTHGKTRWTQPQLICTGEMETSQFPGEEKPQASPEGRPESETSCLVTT
Briefly: SPR (Biacore T200), kinetic; receptor-Fc captured on anti-Fc CM5 chip, IL-2 variant as analyte; conjugated to DBCO 2 x 10 kDa PEG (PEG2). As to the method: (§1) Anti-Fc polyclonal antibodies were immobilized onto a CM5 chip (GE Life Sciences) using amine coupling chemistry (from Amine Coupling Kit, GE Life Sciences). The immobilization steps were carried out at a flow rate of 25 μL/minute in 1×HBS-EP+ buffer (GE Life Sciences; 10× Stock diluted before use). The sensor surfaces were activated for 7 minutes with a mixture of NHS (0.05 M) and EDC (0.2 M). The anti-Fc antibodies were injected over all four flow cells at a concentration of 25 μg/mL in 10 mM sodium acetate, pH 4.5, for seven minutes. Ethanolamine (1 M, pH 8.5) was injected for seven minutes to block any remaining activated groups.
(§2) Kinetic binding experiments were performed at 25° C. using 1×HBS-EP+ with 0.05% BSA buffer. IL-2Rα-Fc or IL-2Rβ-Fc (Acro Biosystems, catalog #ILA-H5251, ILB-H5253) was injected over the anti-Fc surface at concentrations of 3-10 μg/mL for 12 seconds at a flow rate of 10 μL/minute on flow cells 2, 3 and 4, followed by a buffer wash for 30 seconds at the same flow rate. Kinetic characterization of conjugated or unconjugated aldesleukin or variants was carried out in a range of concentrations from 1 nM-10 μM and one injection of no antigen. After capturing ligand (IL-2Rα-Fc or IL-2Rβ-Fc) on the anti-Fc surface, the analyte (IL-2 variant) was bound for 60 seconds, followed by a 180 second dissociation phase at a flow rate of 50 μL/min. […]

Test [2] addresses T1, IL-2Rα-Fc (Acro Biosystems, catalog …). Briefly: SPR, receptor-Fc captured on anti-Fc chip.
Test [3] addresses T2, IL-2Rβ-Fc (Acro Biosystems, catalog #ILB-H5253) (UniProt P14784 27-239, limits assumed).
T2 construct: Bought reagent; Captured on an anti-Fc chip as SPR ligand; also called CD122; not shown: Fc part of the bought fusion
T2 sequence (looked up): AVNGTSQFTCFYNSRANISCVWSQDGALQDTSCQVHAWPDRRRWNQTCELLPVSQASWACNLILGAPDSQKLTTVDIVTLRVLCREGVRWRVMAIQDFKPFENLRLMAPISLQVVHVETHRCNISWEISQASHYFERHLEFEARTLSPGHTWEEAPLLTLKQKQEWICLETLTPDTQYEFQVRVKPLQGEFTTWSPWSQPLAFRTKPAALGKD
Briefly: SPR (Biacore T200), kinetic; receptor-Fc captured on anti-Fc CM5 chip, IL-2 variant as analyte. As to the method:
as §1
Kinetic binding experiments were performed at 25° C. using 1×HBS-EP+ with 0.05% BSA buffer. IL-2Rα-Fc or IL-2Rβ-Fc (Acro Biosystems, catalog #ILA-H5251, ILB-H5253) was injected over the anti-Fc surface at concentrations of 3-10 μg/mL for 12 seconds at a flow rate of 10 μL/minute on flow cells 2, 3 and 4, followed by a buffer wash for 30 seconds at the same flow rate. Kinetic characterization of conjugated or unconjugated aldesleukin or variants was carried out in a range of concentrations from 1 nM-10 μM and one injection of no antigen. After capturing ligand (IL-2Rα-Fc or IL-2Rβ-Fc) on the anti-Fc surface, the analyte (IL-2 variant) was bound for 60 seconds, followed by a 180 second dissociation phase at a flow rate of 50 μL/min. Between each ligand capture and analyte binding cycle, regeneration was carried out using two injections of 10 mM Glycine pH 1.5 for 30 seconds at 30 μL/minute, followed by a 30 second buffer wash step.

Test [4] concerns the target T1, IL-2Rα-Fc (Acro Biosystems, catalog …). Description: SPR (Biacore T200), kinetic; receptor-Fc captured on anti-Fc CM5 chip, IL-2 variant as analyte; unconjugated (pAMF incorporated, no PEG). As to the method: as §1, §2

B1: Ald-6HIS_K34pAMF (SP9833) conjugated to DBCO 2 x 10 kDa PEG (PEG2) (ligand)
chain: MPTSSSTKKTQLQLEHLLLDLQMILNGINNYKNPFLTRMLTFKFYMPKKATELKHLQCLEEELKPLEEVLNLAQSKNFHLRPRDLISNINVIVLELKGSETTFMCEYADETATIVEFLNRWITFSQSIISTLTGGSHHHHHH
modifications: X35 = pAMF (K34) conjugated to branched 20 kDa PEG (DBCO 2 x 10 kDa PEG, PEG2)
notes: also called SP9833 PEG2 conjugated
Turning to B1, the Kd in test [1] amounted to 800 nM. That is a sub-micromolar value.

B2: SP10728 (Aldesleukin-6His_S4/Y30/K34/R80 pAMF F41K conjugated to SC579) (ligand)
chain: B1 chain with S5F, Y31F, F42K, R81F
modifications: X5, X31, X35, X81 = pAMF (S4, Y30, K34, R80), each conjugated to SC579 (releasable 20 kDa mPEG Fmoc-DBCO linker)
notes: also called SP10728 PEG conjugate
As for B2, the binding result in test [2] is on record as “no binding”.

B3: Ald-6HIS_K34pAMF (SP9833), unconjugated (ligand)
chain: B1 chain
modifications: X35 = pAMF (K34 in SEQ ID NO: 2/3 numbering)
notes: also called Aldesleukin-6His K34TAG p-azidomethyl-L-phenylalanine
For B3, the Kd came out at 300 nM in test [3] and 7 nM in test [4].
